From US20170096485A1 (Hoffmann-La Roche, published 2017)
Residue numbers refer to the chain shown, from its start. Read-outs that look alike come from different tables or passages of the source.

Assays:
human mesothelin [1] = molecular target: T1, human mesothelin (human, UniProt Q13421 296-580); assay: cell-based or functional assay
human mesothelin [2] = molecular target: T1, human mesothelin; assay: cell-based or functional assay; remark: listed apart in the source
human mesothelin [3] = molecular target: T1, human mesothelin; assay: cell-based or functional assay; remark: listed apart in the source
human mesothelin [4] = molecular target: T1, human mesothelin; assay: cell-based or functional assay; remark: listed apart in the source
human mesothelin [5] = molecular target: T1, human mesothelin; assay: cell-based or functional assay; remark: listed apart in the source
human mesothelin [6] = molecular target: T1, human mesothelin; assay: cell-based or functional assay; remark: listed apart in the source
human mesothelin [7] = molecular target: T1, human mesothelin; assay: cell-based or functional assay; remark: listed apart in the source
human CD3 = molecular target: T2, human CD3 (human, UniProt P07766 23-207); assay: flow cytometry on Jurkat cells, 3.8 pM-300 nM
T2 construct: also called CD3 epsilon
T2 sequence (P07766 23-207 limits assumed): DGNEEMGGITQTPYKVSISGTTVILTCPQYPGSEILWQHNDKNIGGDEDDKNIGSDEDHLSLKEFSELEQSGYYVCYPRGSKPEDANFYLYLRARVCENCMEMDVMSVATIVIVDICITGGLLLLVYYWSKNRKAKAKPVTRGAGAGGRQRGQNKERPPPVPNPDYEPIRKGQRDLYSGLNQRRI
Procedure: (§1) Briefly, Jurkat suspension cells were harvested, counted and checked for viability. Adherent AsPC-1 cells were harvested using Cell Dissociation Buffer (Gibco, #13151014), counted, checked for viability, and re-suspended at 0.9×10⁶ cells/ml in FACS buffer (100 μl PBS 0.1% BSA). […] Cells were re-incubated for further 30 min at 4° C. with the 1:100 pre-diluted AlexaFluor 647—F(ab′)₂ Fragment Goat Anti-Human IgG, Fey fragment specific secondary antibody (Jackson Immuno Research Lab, […] #109-096-008) and thereafter washed twice with cold PBS 0.1% BSA.
(§2) The stained cells were re-suspended in 100 μl 2% paraformaldehyde-containing FACS Buffer and incubated for 30 min at room temperature to fix the staining. Finally cells were centrifuged for 4 min at 350×g and 4° C., the supernatants were discarded and the cell pellets re-suspended in 200 μl FACS Buffer. Staining was analyzed by FACS using a FACS Canto II (Software FACS Diva). Binding curves and EC50 values were obtained using GraphPadPrism6 (FIG. 8A, binding to Jurkat cells, FIG. 8B binding to AsPC-1 cells).

human mesothelin [8] = molecular target: T1, human mesothelin; assay: flow cytometry on CHO cells transiently transfected to express human MSLN
cynomolgus mesothelin = molecular target: T3, cynomolgus mesothelin (cynomolgus); assay: flow cytometry on CHO cells transiently transfected to express cynomolgus MSLN
T3 construct: whole, on cells; also called cynomolgus MSLN

human mesothelin [9] = molecular target: T1, human mesothelin; assay: flow cytometry on MSLN-expressing AsPC-1 cells, 3.8 pM-300 nM, fit with GraphPad Prism6
Procedure: as §1, §2

T1 sequence (Q13421 296-588): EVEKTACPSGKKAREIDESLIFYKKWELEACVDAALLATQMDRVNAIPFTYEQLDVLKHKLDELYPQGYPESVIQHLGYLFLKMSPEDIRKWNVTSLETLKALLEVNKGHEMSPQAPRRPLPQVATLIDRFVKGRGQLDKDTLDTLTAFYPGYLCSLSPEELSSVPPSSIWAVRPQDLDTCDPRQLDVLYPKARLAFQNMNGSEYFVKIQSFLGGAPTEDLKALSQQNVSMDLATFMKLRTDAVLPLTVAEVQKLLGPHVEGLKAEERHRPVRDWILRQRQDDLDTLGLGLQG

B1: MSLN TCB molecule A: '2+1 IgG CrossFab, inverted' with charge modifications (VH/VL exchange in CD3 binder, charge modification in mesothelin binders) (bispecific antibody)
heavy 1: QVQLVQSGAEVKKPGASVKVSCKASGYSFTGYTMNWVRQAPGQGLEWMGLITPYNGASSYNQKFRGKATMTVDTSTSTVYMELSSLRSEDTAVYYCARGGYDGRGFDYWGQGTLVTVSSASTKGPSVFPLAPSSKSTSGGTAALGCLVEDYFPEPVTVSWNSGALTSGVHTFPAVLQSSGLYSLSSVVTVPSSSLGTQTYICNVNHKPSNTKVDEKVEPKSCDKTHTCPPCPAPEAAGGPSVFLFPPKPKDTLMISRTPEVTCVVVDVSHEDPEVKFNWYVDGVEVHNAKTKPREEQYNSTYRVVSVLTVLHQDWLNGKEYKCKVSNKALGAPIEKTISKAKGQPREPQVCTLPPSRDELTKNQVSLSCAVKGFYPSDIAVEWESNGQPENNYKTTPPVLDSDGSFFLVSKLTVDKSRWQQGNVFSCSVMHEALHNHYTQKSLSLSP
heavy 2: not shown
light 1: EVQLLESGGGLVQPGGSLRLSCAASGFTFSTYAMNWVRQAPGKGLEWVSRIRSKYNNYATYYADSVKGRFTISRDDSKNTLYLQMNSLRAEDTAVYYCVRHGNFGNSYVSWFAYWGQGTLVTVSSASVAAPSVFIFPPSDEQLKSGTASVVCLLNNFYPREAKVQWKVDNALQSGNSQESVTEQDSKDSTYSLSSTLTLSKADYEKHKVYACEVTHQGLSSPVTKSFNRGEC
light 2: DIQMTQSPSSLSASVGDRVTITCSASSSVSYMHWYQQKSGKAPKLLIYDTSKLASGVPSRFSGSGSGTDFTLTISSLQPEDFATYYCQQWSKHPLTFGQGTKLEIKRTVAAPSVFIFPPSDRKLKSGTASVVCLLNNFYPREAKVQWKVDNALQSGNSQESVTEQDSKDSTYSLSSTLTLSKADYEKHKVYACEVTHQGLSSPVTKSFNRGEC
Human mesothelin [1]
  EC50 of T-cell mediated killing of AsPC-1 cells, 24 h (LDH release, human PBMCs, E:T 10:1): 0.308 nM
  EC50 of T-cell mediated killing of AsPC-1 cells, 48 h (LDH release, human PBMCs, E:T 10:1): 0.1 nM
  EC50 of T-cell mediated killing of BxPC-3 cells, 24 h (LDH release, human PBMCs, E:T 10:1): 0.0552 nM
  EC50 of T-cell mediated killing of BxPC-3 cells, 48 h (LDH release, human PBMCs, E:T 10:1): 0.0195 nM
  EC50 of T-cell mediated killing of NCI-H596 cells, 24 h (LDH release, human PBMCs, E:T 10:1): 0.1 nM
  EC50 of T-cell mediated killing of NCI-H596 cells, 48 h (LDH release, human PBMCs, E:T 10:1): 0.143 nM
Human mesothelin [2]
  EC50 of T-cell mediated lysis of AsPC-1 cells, 48 h (LDH release): 0.0762 nM
  EC50 of T-cell mediated lysis of BxPC-3 cells, 48 h (LDH release): 0.0881 nM
  EC50 of T-cell mediated lysis of NCI-H596 cells, 24 h (LDH release): 0.0251 nM
  EC50 of T-cell mediated lysis of NCI-H596 cells, 48 h (LDH release): 0.0971 nM
Human mesothelin [3]
  EC50 of T-cell mediated lysis of AsPC-1 cells, 48 h (LDH release): 0.146 nM
  EC50 of T-cell mediated lysis of BxPC-3 cells, 48 h (LDH release): 0.0577 nM
  EC50 of T-cell mediated lysis of NCI-H596 cells, 48 h (LDH release): 0.149 nM
Human mesothelin [4]
  EC50 of T-cell mediated lysis of AsPC-1 cells, 48 h (LDH release): ~0.498 nM
  EC50 of T-cell mediated lysis of BxPC-3 cells, 48 h (LDH release): 0.258 nM
  EC50 of T-cell mediated lysis of NCI-H596 cells, 48 h (LDH release): 0.313 nM
Human mesothelin [5]
  EC50 of CD69 up-regulation on CD4 T cells (% CD4+CD69+), AsPC-1 target cells, 72 h (FACS): 0.131 nM
  EC50 of CD69 up-regulation on CD4 T cells (% CD4+CD69+), BxPC-3 target cells, 72 h (FACS): 0.00752 nM
  EC50 of CD69 up-regulation on CD4 T cells (% CD4+CD69+), NCI-H596 target cells, 72 h (FACS): 0.0352 nM
  EC50 of CD69 up-regulation on CD8 T cells (% CD8+CD69+), AsPC-1 target cells, 72 h (FACS): 0.0936 nM
  EC50 of CD69 up-regulation on CD8 T cells (% CD8+CD69+), BxPC-3 target cells, 72 h (FACS): 0.0307 nM
  EC50 of CD69 up-regulation on CD8 T cells (% CD8+CD69+), NCI-H596 target cells, 72 h (FACS): 0.0476 nM
Human mesothelin [6]
  EC50 of CD69 up-regulation on CD4 T cells (% CD4+CD69+), AsPC-1 target cells, 48 h (FACS): 0.174 nM
  EC50 of CD69 up-regulation on CD4 T cells (% CD4+CD69+), BxPC-3 target cells, 48 h (FACS): 0.0774 nM
  EC50 of CD69 up-regulation on CD4 T cells (% CD4+CD69+), NCI-H596 target cells, 48 h (FACS): 0.0412 nM
  EC50 of CD69 up-regulation on CD8 T cells (% CD8+CD69+), AsPC-1 target cells, 48 h (FACS): 0.137 nM
  EC50 of CD69 up-regulation on CD8 T cells (% CD8+CD69+), BxPC-3 target cells, 48 h (FACS): 0.0977 nM
  EC50 of CD69 up-regulation on CD8 T cells (% CD8+CD69+), NCI-H596 target cells, 48 h (FACS): 0.0783 nM
Human mesothelin [7]
  EC50 of CD69 up-regulation on CD4 T cells (% CD4+CD69+), AsPC-1 target cells (FACS): 0.513 nM
  EC50 of CD69 up-regulation on CD4 T cells (% CD4+CD69+), BxPC-3 target cells (FACS): 0.0598 nM
  EC50 of CD69 up-regulation on CD4 T cells (% CD4+CD69+), NCI-H596 target cells (FACS): 0.0774 nM
  EC50 of CD69 up-regulation on CD8 T cells (% CD8+CD69+), AsPC-1 target cells (FACS): 0.546 nM
  EC50 of CD69 up-regulation on CD8 T cells (% CD8+CD69+), BxPC-3 target cells (FACS): ~0.118 nM
  EC50 of CD69 up-regulation on CD8 T cells (% CD8+CD69+), NCI-H596 target cells (FACS): 0.145 nM
Human CD3
  binding result: binds
Human mesothelin [8]
  EC50: 7.76 nM
Cynomolgus mesothelin
  EC50: 5.5 nM
Human mesothelin [9]
  EC50: 1.44 nM

B2: MSLN TCB molecule E: '1+1 IgG CrossFab, inverted' with charge modifications (bispecific antibody)
heavy: not shown
light 1: B1 light 1
light 2: B1 light 2
chain: DKTHTCPPCPAPEAAGGPSVFLFPPKPKDTLMISRTPEVTCVVVDVSHEDPEVKFNWYVDGVEVHNAKTKPREEQYNSTYRVVSVLTVLHQDWLNGKEYKCKVSNKALGAPIEKTISKAKGQPREPQVCTLPPSRDELTKNQVSLSCAVKGFYPSDIAVEWESNGQPENNYKTTPPVLDSDGSFFLVSKLTVDKSRWQQGNVFSCSVMHEALHNHYTQKSLSLSP
Human mesothelin [3]
  EC50 of T-cell mediated lysis of AsPC-1 cells, 48 h (LDH release): 0.145 nM
  EC50 of T-cell mediated lysis of BxPC-3 cells, 48 h (LDH release): 0.115 nM
  EC50 of T-cell mediated lysis of NCI-H596 cells, 48 h (LDH release): 0.182 nM
Human mesothelin [6]
  EC50 of CD69 up-regulation on CD4 T cells (% CD4+CD69+), AsPC-1 target cells, 48 h (FACS): 0.167 nM
  EC50 of CD69 up-regulation on CD4 T cells (% CD4+CD69+), BxPC-3 target cells, 48 h (FACS): ~0.0939 nM
  EC50 of CD69 up-regulation on CD4 T cells (% CD4+CD69+), NCI-H596 target cells, 48 h (FACS): 0.0388 nM
  EC50 of CD69 up-regulation on CD8 T cells (% CD8+CD69+), AsPC-1 target cells, 48 h (FACS): 0.146 nM
  EC50 of CD69 up-regulation on CD8 T cells (% CD8+CD69+), BxPC-3 target cells, 48 h (FACS): ~0.0952 nM
  EC50 of CD69 up-regulation on CD8 T cells (% CD8+CD69+), NCI-H596 target cells, 48 h (FACS): 0.0609 nM
Human mesothelin [9]
  EC50: 1.79 nM

B3: MSLN TCB molecule F: '1+1 IgG CrossMab' with charge modifications (bispecific antibody)
heavy 1: B1 heavy 1
heavy 2: not shown
light 1: B1 light 1
light 2: B1 light 2
Human mesothelin [3]
  EC50 of T-cell mediated lysis of AsPC-1 cells, 48 h (LDH release): 0.37 nM
  EC50 of T-cell mediated lysis of NCI-H596 cells, 48 h (LDH release): 0.319 nM
Human mesothelin [6]
  EC50 of CD69 up-regulation on CD4 T cells (% CD4+CD69+), AsPC-1 target cells, 48 h (FACS): 0.299 nM
  EC50 of CD69 up-regulation on CD4 T cells (% CD4+CD69+), BxPC-3 target cells, 48 h (FACS): ~0.0958 nM
  EC50 of CD69 up-regulation on CD4 T cells (% CD4+CD69+), NCI-H596 target cells, 48 h (FACS): 0.0454 nM
  EC50 of CD69 up-regulation on CD8 T cells (% CD8+CD69+), AsPC-1 target cells, 48 h (FACS): 0.118 nM
  EC50 of CD69 up-regulation on CD8 T cells (% CD8+CD69+), BxPC-3 target cells, 48 h (FACS): 0.479 nM
  EC50 of CD69 up-regulation on CD8 T cells (% CD8+CD69+), NCI-H596 target cells, 48 h (FACS): 0.0532 nM
Human CD3
  binding result: binds
Human mesothelin [9]
  EC50: 4.59 nM

B4: MSLN TCB molecule C: '2+1 IgG CrossFab, inverted' without charge modifications (VH/VL exchange in CD3 binder) (bispecific antibody)
light: B1 light 1
chain 1: B1 heavy 1 with E149K, E215K
chain 2: not shown
chain 3: B1 light 2 with R122E, K123Q
Human mesothelin [9]
  EC50: 0.828 nM
